Data published in patent US20100317054A1 (VIRGINIA TECH INTELLECTUAL PROPERTIES, published 2010).

B1: human DC-SIGN (receptor, UniProt Q9NNX6 1-404, looked up)
chain: MSDSKEPRLQQLGLLEEEQLRGLGFRQTRGYKSLAGCLGHGPLVLQLLSFTLLAGLLVQVSKVPSSISQEQSRQDAIYQNLTQLKAAVGELSEKSKLQEIYQELTQLKAAVGELPEKSKLQEIYQELTRLKAAVGELPEKSKLQEIYQELTWLKAAVGELPEKSKMQEIYQELTRLKAAVGELPEKSKQQEIYQELTRLKAAVGELPEKSKQQEIYQELTRLKAAVGELPEKSKQQEIYQELTQLKAAVERLCHPCPWEWTFFQGNCYFMSNSQRNWHDSITACKEVGAQLVVIKSAEEQNFLQLQSSRSNRFTWMGLSDLNQEGTWQWVDGSPLLPSFKQYWNRGEPNNVGEEDCAEFSGNGWNDDKCNLAKFWICKKSAASCSRDEEQFLSPAPATPNPPPA
notes: whole, on cells; Positive control cell line; also called hDC-SIGN; CD209
B2: human ICAM-2-Fc chimera (Fc fusion, UniProt P13598 25-223, looked up)
chain: KVFEVHVRPKKLAVEPKGSLEVNCSTTCNQPEVGGLETSLDKILLDEQAQWKHYLVSNISHDTVLQCHFTCSGKQESMNSNVSVYQPPRQVILTLQPTLVAVGKSFTIECRVPTVEPLDSLTLFLFRGNETLHYETFGKAAPAPQEATATFNSTADREDGHRNFSCLAVLDLMSRGGNIFHKHSAPKMLEIYEPVSDSQ
notes: Bought from R&D Systems; soluble immunoadhesin; also called hICAM2-Fc; hICAM-2-Fc; not shown: human IgG Fc (detected with anti-human IgG Fc antibody)
B3: porcine DC-SIGN (receptor)
chain: MAEICDPKEPEEKTWTGPVLVERDLGLLRRLRNSPGCLTWPLLLLLLFVSLGFFMLLVTTLVQVSRIHQSLQRERETSRRPTAQEKIQSSLDKFLQQMTWMNATLAGLCHPCPWHWEFFQGRCYLFSQTQSDWKSSLSACKDIGAQLVIINSTAEQKFLKSWYVRYNKATWIGLSDDTNEGSWQWVDNSPLQLSFWKEGEPNNHGDEDCAELHNDGWNDSKCTVENAWICEKPSSPCPML
notes: In the Western blot it stood in a cell lysate (band of about 48 kDa, probably glycosylated); also called pDC-SIGN; BHK-PDCS (BHK-21 cells stably expressing it)

Tests used:
[1] = target: T1, human ICAM-3-Fc chimera (human, UniProt P32942 30-485, limits assumed); assay: flow cytometry on 3T3-HDCS cells, 1 ug Fc chimera, FITC anti-human IgG Fc
T1 construct: Bought from R&D Systems; soluble immunoadhesin; also called hICAM3-Fc; hICAM-3-Fc; not shown: human IgG Fc (detected with anti-human IgG Fc antibody)
T1 sequence (looked up): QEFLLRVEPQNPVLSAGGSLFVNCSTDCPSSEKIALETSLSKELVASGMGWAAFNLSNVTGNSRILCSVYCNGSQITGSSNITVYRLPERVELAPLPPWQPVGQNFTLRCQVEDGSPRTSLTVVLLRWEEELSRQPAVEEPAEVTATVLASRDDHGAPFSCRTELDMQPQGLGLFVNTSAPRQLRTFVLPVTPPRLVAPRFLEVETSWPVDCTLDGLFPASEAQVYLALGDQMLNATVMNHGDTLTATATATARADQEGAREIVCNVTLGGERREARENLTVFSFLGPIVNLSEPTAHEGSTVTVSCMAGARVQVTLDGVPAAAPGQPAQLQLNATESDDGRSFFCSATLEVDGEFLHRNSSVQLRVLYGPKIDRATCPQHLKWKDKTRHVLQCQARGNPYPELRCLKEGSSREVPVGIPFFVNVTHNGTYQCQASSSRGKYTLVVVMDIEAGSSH
Excerpt: (§1) FIGS. 8a to 8e show the binding of human ICAM-3 and ICAM-2 immunoadhesins to BHK cells stably expressing pDC-SIGN. FIG. 8a provides the detection of surface expression of pDC-SIGN protein on stable BHK cell lines. BHK-21, and unsorted or sorted BHK-PDCS cell lines were stained with anti-pDC-SIGN antibody and FITC-labeled goat anti-rabbit IgG, respectively, and analyzed by flow cytometry. Dashed open histograms represented the background staining The expression of pDC-SIGN was indicated by the cross-hatched histograms. Expression of hDC-SIGN on the surface of 3T3-HDCS cell line was also verified by staining with a hDC-SIGN monoclonal antibody (right, bottom panel). FIGS. 8b to 8e illustrate the calcium-dependent binding of human ICAM-3 and ICAM-2 immunoadhesins to BHK-PDCS and 3T3-HDCS cells. Dashed open histograms represent cells staining only with a FITC labeled anti-human IgG Fc antibody. Results are representative of three independent experiments. Data are expressed as histogram analysis of 10,000 cells.
(§2) Human ICAM-3 and ICAM-2 binding assay: Adhesion of human ICAM-3 or ICAM-2 to pDC-SIGN proteins was assessed with BHK-PDCS and BHK-21 cells by measuring detectable cells that bound the soluble immunoadhesins through FACS analysis. 3T3-HDCS cells were used as the positive control. […] Fluorescence was monitored using FACSAria (BD Biosciences, San Jose, Calif.).

[2] = target: T2, recombinant human IgG1 Fc (human, UniProt P01857-1 100-330 = IgG part); assay: flow cytometry on 3T3-HDCS cells, FITC anti-human IgG Fc detection
T2 construct: domain: Fc; Negative control for the ICAM-Fc chimeras; also called hFc
Description: (§3) Human ICAM-3 and ICAM-2 binding assay: Adhesion of human ICAM-3 or ICAM-2 to pDC-SIGN proteins was assessed with BHK-PDCS and BHK-21 cells by measuring detectable cells that bound the soluble immunoadhesins through FACS analysis. 3T3-HDCS cells were used as the positive control. Cells (1˜3×10⁵ per sample) were resuspended in 100 μL PBS containing 2% FBS and incubated for 60 min at 4° C. with 1 μg of recombinant human IgG₁ Fc (hFc), human ICAM-3-Fc (hICAM3-Fc) chimera or hICAM2-Fc chimera (R&D Systems, Minneapolis, Minn.) in the presence or absence of mannan (100 μg/mL) or ethylene glycol tetraacetic acid (EGTA, 10 mM). Cells were then washed twice and incubated for another 45 min at 4° C. with 0.5 μg of FITC-labeled anti-human IgG Fc antibody (KPL, Inc., Gaithersburg, Md.) in 100 μL PBS containing 2% FBS. Fluorescence was monitored using FACSAria (BD Biosciences, San Jose, Calif.).

[3] = target: B1; assay: flow cytometry histograms, FIGS. 8b-8e
Excerpt: as §1, §2

[4] = target: B2; assay: flow cytometry on BHK-PDCS cells, 1 ug Fc chimera, FITC anti-human IgG Fc
Excerpt: as §1, §2

[5] = target: T1, human ICAM-3-Fc chimera; assay: as above
Excerpt: as §1, §2

[6] = target: T2, recombinant human IgG1 Fc; assay: flow cytometry on BHK-PDCS cells, FITC anti-human IgG Fc detection
Description: as §3

B1
binding result [1]: binds | binding result [2]: no binding (tested: 1 ug in 100 uL)

B2
binding result [3]: binds

B3
binding result [4]: binds | binding result [5]: binds | binding result [6]: no binding (tested: 1 ug in 100 uL)
